Experimental data reported in article PMC11926218, “Structure and unusual binding mechanism of the hyaluronan receptor LYVE-1 mediating leucocyte entry to lymphatics” (Nature Communications, 2025).

Target: the molecule itself
Experiment: SEC; Superdex Increase 200 10/300GL, protein in PBS after His Trap purification; step run to remove aggregates

B1: wild-type hLYVE-1 Δ238 His10 (soluble full ectodomain of human LYVE-1) (domain or fragment, UniProt Q9Y5Y7 20-238, looked up)
chain: LVQGSLRAEELSIQVSCRIMGITLVSKKANQQLNFTEAKEACRLLGLSLAGKDQVETALKASFETCSYGWVGDGFVVISRISPNPKCGKNGVGVLIWKVPVSRQFAAYCYNSSDTWTNSCIPEIITTKDPIFNTQTATQTTEFIVSDSTYSVASPYSTIPAPTTTPPAPASTSIPRRKKLICVTEVFMETSTMSTETEPFVENKAAFKNEAAGFGGVPT
notes: signal peptide in the construct; Obtained as a mixture of monomer and disulfide-linked homodimer; The protein is glycosylated, made in CHO cells; also called hLYVE-1 full wild-type ectodomain; hLYVE-1 Δ238 with a His10 single tag; source: CHO-K1, transfected (pEE14), culture supernatant, purified (His Trap, size exclusion chromatography); not shown: His10, C-terminal, kept
binding result: binds
